From US10184115B2, “Mutated cellobiose dehydrogenase with increased substrate specificity” (DIRECTSENS GMBH, priority 2012, dated 2019)

Assays:
[1] = substrate: OC[C@H]1O[C@H](O[C@H]2[C@H](O)[C@@H](O)C(O)O[C@@H]2CO)[C@H](O)[C@@H](O)[C@@H]1O; experiment: Steady-state kinetics, DCIP assay: M. thermophilum CDH N313S; format: biochemical, Myriococcum thermophilum; conditions: other: apparent, pH 4.5, 30° C.
Experimental: (§1) Enzyme activity was assayed at 30° C. using either the DCIP (Karapetyan et al., 2005 Journal of Biotechnology 121: 34-48) or cytochrome c (Canevascini et al., 1991, European Journal of Biochemistry 198: 43-52) as electron acceptor. […] Stock solutions of carbohydrates used for kinetic measurements were prepared in the respective buffer and allowed to stand overnight for mutarotation, while stock solutions of electron acceptors were prepared in water and immediately used. The reaction stoichiometry is 1 for the two-electron acceptor DCIP (1 mole of DCIP reduced per mole of carbohydrate oxidized), but 2 for the one-electron acceptor cytochrome c. Kinetic constants were calculated by fitting the observed data to the Henri-Michaelis-Menten equation or to the adapted model for substrate inhibition using nonlinear least-squares regression and the program SigmaPlot (Systat Software, San Jose, Calif., USA).
(§2) Enzymes were purified to homogeneity in a two-step purification. The sample was loaded on a 20 mL PHE Sepharose FF column (HR26/20) equilibrated with 50 mM Na-acetate buffer pH 5.5 containing 20% ammonium sulfate. Proteins were eluted by increasing the concentration of the elution buffer (50 mM Na-acetate buffer pH 5.5) from 0 to 100% in 5 column volumes and fractions containing CDH activity were pooled. After diafiltration with a polyethersulfone flat-stack cross flow module with a cut-off of 10 kDa (Viva Flow 50, Sartorius, Göttingen, Germany) until conductivity of 5 mS cm^−1 in 20 mM Na-acetate pH 5.5 the samples were loaded on a 20 mL Q-Source column (HR26/20) equilibrated with a 20 mM Na-acetate buffer pH 5.5. CDH was eluted by increasing the concentration of the elution buffer (50 mM Na-acetate buffer pH 5.5 containing 0.5 M NaCl) from 0 to 100% in 50 column volumes. Fractions were tested for CDH activity and pooled according to the highest Reinheitszahl (RZ, calculated from the absorbance ratio 420 nm/280 nm). Purified enzymes were concentrated and diafiltered in 50 mM citrate buffer, pH 5.5, aliquoted and kept at 4° C. for further use.

[2] = substrate: OC[C@H]1O[C@H](O[C@H]2[C@H](O)[C@@H](O)C(O)O[C@@H]2CO)[C@H](O)[C@@H](O)[C@@H]1O; experiment: Steady-state kinetics, DCIP assay: M. thermophilum CDH N721D; format: biochemical, Myriococcum thermophilum; conditions: other: apparent, pH 4.5, 30° C.
Experimental: as §1, §2

[3] = substrate: OC[C@H]1O[C@H](O[C@H]2[C@H](O)[C@@H](O)C(O)O[C@@H]2CO)[C@H](O)[C@@H](O)[C@@H]1O; experiment: Steady-state kinetics, DCIP assay: M. thermophilum CDH wt; format: biochemical, Myriococcum thermophilum; conditions: other: apparent, pH 4.5, 30° C.
Experimental: as §1, §2

[4] = substrate: OC[C@H]1O[C@H](O[C@H]2[C@H](O)[C@@H](O)C(O)O[C@@H]2CO)[C@H](O)[C@@H](O)[C@@H]1O; experiment: Steady-state kinetics, DCIP assay: C. thermophilus CDH C310Y; format: biochemical, Corynascus thermophilus; conditions: other: apparent, pH 5.5, 30° C.
Experimental: as §1, §2

[5] = substrate: OC[C@H]1OC(O)[C@H](O)[C@@H](O)[C@@H]1O; experiment: as above; format: biochemical, Corynascus thermophilus; conditions: other: apparent, pH 5.5, 30° C.
Experimental: as §1, §2

[6] = substrate: OC[C@H]1O[C@H](O[C@H]2[C@H](O)[C@@H](O)C(O)O[C@@H]2CO)[C@H](O)[C@@H](O)[C@@H]1O; experiment: Steady-state kinetics, DCIP assay: C. thermophilus flavodehydrogenase domain C310Y; format: biochemical, Corynascus thermophilus; conditions: other: apparent, pH 5.5, 30° C.
Experimental: as §1
(§3) Recombinant wild-type CDH as well as variants were produced in 1 L baffled flasks. Precultures were grown overnight in 30 mL of YPD medium at 30° C. and 120 rpm. After approximately 18 hours the precultures were transferred into 1 L baffled flasks containing 200 mL BMGY medium without methanol. Induction with methanol was started immediately using a multichannel peristaltic pump (Minipuls Evolution, Gilson, Middleton, Wis., USA). Each flask was supplied eight times a day with methanol yielding a total concentration of 2% (v/v) methanol per day. Increase in activity was monitored using the DCIP and the cytochrome c enzyme assays. Cultivation was stopped at day five of methanol induction, cells removed by centrifugation (4000 rpm, 20 min) and the supernatant set to a final ammonium sulfate concentration of 20%.
as §2

[7] = substrate: OC[C@H]1OC(O)[C@H](O)[C@@H](O)[C@@H]1O; experiment: as above; format: biochemical, Corynascus thermophilus; conditions: other: apparent, pH 5.5, 30° C.
Experimental: as §1, §3, §2

[8] = substrate: OC[C@H]1O[C@H](O[C@H]2[C@H](O)[C@@H](O)C(O)O[C@@H]2CO)[C@H](O)[C@@H](O)[C@@H]1O; experiment: purified protein, by the assay type; conditions: other: apparent, wt flavodehydrogenase domain, DCIP assay, pH 5.5, 30° C.

B1: Myriococcum thermophilum cellobiose dehydrogenase (CDH, SEQ ID NO: 1) variant N313S (Thermothelomyces myriococcoides; N313S) (protein)
chain: QNNVPNTFTDPDSGITFNTWGLDEDSPQTQGGFTFGVALPSDALTTDASEFIGYLKCARNDESGWCGISLGGPMTNSLLITAWPHEDTVYTSLRFATGYAMPDVYEGDAEITQVSSSVNSTHFSLIFRCKNCLQWSHGGSSGGASTSGGVLVLGWVQAFDDPGNPTCPEQITLQQHDNGMGIWGAQLNTDAASPSYTDWAAQATKTVTGDCEGPTETSVVGVPVPTGVSFDYIVVGGGAGGIPAADKLSEAGKSVLLIEKGFASTANTGGTLGPEWLEGHDLTRFDVPGLCSQIWVDSKGIACEDTDQMAGCVLGGGTAVNAGLWFKPYSLDWDYLFPDGWKYNDVQPAINRALSRIPGTDAPSTDGKRYYQEGFEVLSKGLAAGGWTSVTANNAPDKKNRTFAHAPFMFAGGERNGPLGTYFQTAKKRNNFDVWLNTSVKRVIREGGHITGVEVEPFRDGGYEGIVPVTKVTGRVILSAGTFGSAKILLRSGIGPEDQLEVVAASEKDGPTMIGNSSWINLPVGYNLDDHLNTDTVISHPDVVFYDFYEAWDDPIESDKNSYLESRTGILAQAAPNIGPMFWEEIVGADGIVRQLQWTARVEGSLGAPNGHTMTMSQYLGRGATSRGRMTITPSLTTIVSDVPYLKDPNDKEAVIQGIINLQNALQNVANLTWLFPNSTITPREYVESMVVSPSNRRSNHWMGTNKLGTDDGRKGGSAVVDLDTRVYGTDNLFVIDASIFPGVPTTNPTSYIVVAAEHASSRILALPDLEPVPKYGQCGGREWTGSFVCADGSTCEYQNEWYSQCL
[1]
  Km: 52 mM
  kcat: 1.3 s⁻¹
  kcat/Km: 25 M⁻¹ s⁻¹

B2: Myriococcum thermophilum cellobiose dehydrogenase (CDH, SEQ ID NO: 1) variant N721D (Thermothelomyces myriococcoides; N721D) (protein)
chain: QNNVPNTFTDPDSGITFNTWGLDEDSPQTQGGFTFGVALPSDALTTDASEFIGYLKCARNDESGWCGISLGGPMTNSLLITAWPHEDTVYTSLRFATGYAMPDVYEGDAEITQVSSSVNSTHFSLIFRCKNCLQWSHGGSSGGASTSGGVLVLGWVQAFDDPGNPTCPEQITLQQHDNGMGIWGAQLNTDAASPSYTDWAAQATKTVTGDCEGPTETSVVGVPVPTGVSFDYIVVGGGAGGIPAADKLSEAGKSVLLIEKGFASTANTGGTLGPEWLEGHDLTRFDVPGLCNQIWVDSKGIACEDTDQMAGCVLGGGTAVNAGLWFKPYSLDWDYLFPDGWKYNDVQPAINRALSRIPGTDAPSTDGKRYYQEGFEVLSKGLAAGGWTSVTANNAPDKKNRTFAHAPFMFAGGERNGPLGTYFQTAKKRNNFDVWLNTSVKRVIREGGHITGVEVEPFRDGGYEGIVPVTKVTGRVILSAGTFGSAKILLRSGIGPEDQLEVVAASEKDGPTMIGNSSWINLPVGYNLDDHLNTDTVISHPDVVFYDFYEAWDDPIESDKNSYLESRTGILAQAAPNIGPMFWEEIVGADGIVRQLQWTARVEGSLGAPNGHTMTMSQYLGRGATSRGRMTITPSLTTIVSDVPYLKDPNDKEAVIQGIINLQNALQNVANLTWLFPNSTITPREYVESMVVSPSNRRSDHWMGTNKLGTDDGRKGGSAVVDLDTRVYGTDNLFVIDASIFPGVPTTNPTSYIVVAAEHASSRILALPDLEPVPKYGQCGGREWTGSFVCADGSTCEYQNEWYSQCL
[2]
  Km: 6.1 mM
  kcat: 0.08 s⁻¹
  kcat/Km: 13.2 M⁻¹ s⁻¹

B3: Myriococcum thermophilum cellobiose dehydrogenase (CDH), recombinant wild type, SEQ ID NO: 1 (Thermothelomyces myriococcoides) (protein)
chain: QNNVPNTFTDPDSGITFNTWGLDEDSPQTQGGFTFGVALPSDALTTDASEFIGYLKCARNDESGWCGISLGGPMTNSLLITAWPHEDTVYTSLRFATGYAMPDVYEGDAEITQVSSSVNSTHFSLIFRCKNCLQWSHGGSSGGASTSGGVLVLGWVQAFDDPGNPTCPEQITLQQHDNGMGIWGAQLNTDAASPSYTDWAAQATKTVTGDCEGPTETSVVGVPVPTGVSFDYIVVGGGAGGIPAADKLSEAGKSVLLIEKGFASTANTGGTLGPEWLEGHDLTRFDVPGLCNQIWVDSKGIACEDTDQMAGCVLGGGTAVNAGLWFKPYSLDWDYLFPDGWKYNDVQPAINRALSRIPGTDAPSTDGKRYYQEGFEVLSKGLAAGGWTSVTANNAPDKKNRTFAHAPFMFAGGERNGPLGTYFQTAKKRNNFDVWLNTSVKRVIREGGHITGVEVEPFRDGGYEGIVPVTKVTGRVILSAGTFGSAKILLRSGIGPEDQLEVVAASEKDGPTMIGNSSWINLPVGYNLDDHLNTDTVISHPDVVFYDFYEAWDDPIESDKNSYLESRTGILAQAAPNIGPMFWEEIVGADGIVRQLQWTARVEGSLGAPNGHTMTMSQYLGRGATSRGRMTITPSLTTIVSDVPYLKDPNDKEAVIQGIINLQNALQNVANLTWLFPNSTITPREYVESMVVSPSNRRSNHWMGTNKLGTDDGRKGGSAVVDLDTRVYGTDNLFVIDASIFPGVPTTNPTSYIVVAAEHASSRILALPDLEPVPKYGQCGGREWTGSFVCADGSTCEYQNEWYSQCL
[3]
  Km: 6.8 mM
  kcat: 0.32 s⁻¹
  kcat/Km: 47 M⁻¹ s⁻¹

B4: Corynascus thermophilus cellobiose dehydrogenase (CDH, SEQ ID NO: 7) variant C310Y (Thermothelomyces fergusii; C310Y) (protein)
chain: QMTEGTYTHEATGITFKTWTPSDGSTFTFGLALPGDALTNDATEYIGLLRCQITDPSSPGYCGISHGQSGQMTQALLLVAWASEDVVYTSFRYATGYTLPELYTGDAKLTQIASSVSGDSFEVLFRCENCFSWDQNGATGSVSTSNGALVLGYAASKSGLTGATCPDTAEFGFHNNGFGQWGAVLEGATSDSYEEWAQLATITPPTTCDGNGPGDKVCVPAPEDTYDYIVVGAGAGGITVADKLSEAGHKVLLIEKGPPSTGLWNGTMKPEWLEGTDLTRFDVPGLYNQIWVDSAGIACTDTDQMAGCVLGGGTAVNAGLWWKPHPADWDDNFPHGWKSSDLADATERVFSRIPGTWHPSQDGKLYRQEGFEVISQGLANAGWREVDANQEPSEKNRTYSHSVFMFSGGERGGPLATYLASAAQRSNFNLWVNTSVRRAIRTGPRVSGVELECLADGGFNGTVNLKEGGGVIFSAGAFGSAKLLLRSGIGPEDQLEIVASSKDGETFISKNDWIKLPVGHNLIDHLNTDLIITHPDVVFYDFYAAWDNPITEDKEAYLNSRSGILAQAAPNIGPLMWEEVTPSDGITRQFQWTCRVEGDSSKTNSTHAMTLSQYLGRGVVSRGRMGITSGLTTTVAEHPYLHNDGDLEAVIQGIQNVVDALSQVPDLEWVLPPPNTTVEEYVNSLIVSPANRRANHWMGTAKMGLDDGRSGGSAVVDLNTKVYGTDNLFVVDASIFPGMSTGNPSAMIVIVAEQAAQRILSLRY
[4]
  Km: 80.0 mM
  kcat: 0.95 s⁻¹
  kcat/Km: 12 M⁻¹ s⁻¹
[5]
  Km: 37.5 mM
  kcat: 19.67 s⁻¹
  kcat/Km: 524.5 M⁻¹ s⁻¹

B5: Corynascus thermophilus CDH flavodehydrogenase domain (amino acids 249-787 of SEQ ID NO: 7) variant C310Y (C310YDH) (Thermothelomyces fergusii; C310Y) (protein)
chain: YDYIVVGAGAGGITVADKLSEAGHKVLLIEKGPPSTGLWNGTMKPEWLEGTDLTRFDVPGLYNQIWVDSAGIACTDTDQMAGCVLGGGTAVNAGLWWKPHPADWDDNFPHGWKSSDLADATERVFSRIPGTWHPSQDGKLYRQEGFEVISQGLANAGWREVDANQEPSEKNRTYSHSVFMFSGGERGGPLATYLASAAQRSNFNLWVNTSVRRAIRTGPRVSGVELECLADGGFNGTVNLKEGGGVIFSAGAFGSAKLLLRSGIGPEDQLEIVASSKDGETFISKNDWIKLPVGHNLIDHLNTDLIITHPDVVFYDFYAAWDNPITEDKEAYLNSRSGILAQAAPNIGPLMWEEVTPSDGITRQFQWTCRVEGDSSKTNSTHAMTLSQYLGRGVVSRGRMGITSGLTTTVAEHPYLHNDGDLEAVIQGIQNVVDALSQVPDLEWVLPPPNTTVEEYVNSLIVSPANRRANHWMGTAKMGLDDGRSGGSAVVDLNTKVYGTDNLFVVDASIFPGMSTGNPSAMIVIVAEQAAQRILSLRY
[6]
  Km: 51.86 mM
  kcat: 0.69 s⁻¹
  kcat/Km: 13.3 M⁻¹ s⁻¹
[7]
  Km: 37.1 mM
  kcat: 17.6 s⁻¹
  kcat/Km: 474.4 M⁻¹ s⁻¹

B6: Corynascus thermophilus CDH flavodehydrogenase domain, recombinant wild type (wtDH), amino acids 249-787 of SEQ ID NO: 7 (Thermothelomyces fergusii) (protein)
chain: YDYIVVGAGAGGITVADKLSEAGHKVLLIEKGPPSTGLWNGTMKPEWLEGTDLTRFDVPGLCNQIWVDSAGIACTDTDQMAGCVLGGGTAVNAGLWWKPHPADWDDNFPHGWKSSDLADATERVFSRIPGTWHPSQDGKLYRQEGFEVISQGLANAGWREVDANQEPSEKNRTYSHSVFMFSGGERGGPLATYLASAAQRSNFNLWVNTSVRRAIRTGPRVSGVELECLADGGFNGTVNLKEGGGVIFSAGAFGSAKLLLRSGIGPEDQLEIVASSKDGETFISKNDWIKLPVGHNLIDHLNTDLIITHPDVVFYDFYAAWDNPITEDKEAYLNSRSGILAQAAPNIGPLMWEEVTPSDGITRQFQWTCRVEGDSSKTNSTHAMTLSQYLGRGVVSRGRMGITSGLTTTVAEHPYLHNDGDLEAVIQGIQNVVDALSQVPDLEWVLPPPNTTVEEYVNSLIVSPANRRANHWMGTAKMGLDDGRSGGSAVVDLNTKVYGTDNLFVVDASIFPGMSTGNPSAMIVIVAEQAAQRILSLRY
[8]
  Km: 2.89 mM
